{"source": "paper doi:10.1101/2022.01.07.475460", "biological_target": "Recombinant Xenopus laevis Chromosomal Passenger Complex (INCENP, Aurora B 33-368, Survivin-B, Borealin/Dasra-A) (Xenopus laevis) (UniProt Q6GPL3)", "sequence (Q6GPL3 whole entry, looked up, tested part not stated, one chain of several)": "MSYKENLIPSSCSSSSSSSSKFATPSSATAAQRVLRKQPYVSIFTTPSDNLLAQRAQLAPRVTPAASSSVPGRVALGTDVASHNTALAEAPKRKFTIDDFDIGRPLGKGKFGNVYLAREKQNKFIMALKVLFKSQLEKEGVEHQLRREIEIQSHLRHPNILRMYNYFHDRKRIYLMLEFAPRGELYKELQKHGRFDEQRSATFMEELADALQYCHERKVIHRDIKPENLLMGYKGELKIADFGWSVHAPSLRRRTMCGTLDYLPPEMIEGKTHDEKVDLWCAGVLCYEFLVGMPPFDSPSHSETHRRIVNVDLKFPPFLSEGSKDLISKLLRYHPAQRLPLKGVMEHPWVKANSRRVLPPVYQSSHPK", "experiment": "partitioning into condensates"}
{"substance": "α/β-tubulin dimers (from UniProt Q6B856 1-445) (complex)", "values": [{"measurement": "enrichment in condensates (partition coefficient)", "result": 5, "unit": "fold"}]}
